From the supplement of paper PMC9170038

tested on: K4 kissing-loop RNA reporter; test: apparent KD of K4 kissing-loop reporter; higher = weaker reporter binding; conditions: Eterna round: R107; input ligand: FMN 200 uM
Protocol: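 RNA-MaP round R107: designed RNA switches with theophylline, tryptophan, arginine or FMN aptamers are transcribed on-chip within common flanks. They are titrated with a labelled K4 kissing-loop RNA reporter in RNA-MaP buffer (100 mM Tris pH 7.5, 80 mM KCl, 4 mM MgCl2), without ligand or with the indicated ligand. Median apparent KD per design.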
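Also: bound reporter read as fluorescence of individual clusters on recovered sequencing chips by microscopy, with normalized cluster intensities fitted with a binding model.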

Going from “GCCGUAGAUGGAAGGAGCGACUUCAGCGGAUAAACGUGACAAUUGGAGUGAUGUUCGCAAGGUCAGGUAGGUCGCCAUCUACGGC” to “AUUUUGGUUUAGAGUGAUGUUCCUUGUAUUCGAGGACCGGUACGGCCGCCACUCGGGUAGAAAAGAAAAGAAAUGUUUGAUUUUU [BDazzled - #9 SS Tryptophan A]”, the “apparent KD of K4 kissing-loop reporter” value falls from 819 nM to 282 nM (2.9-fold).

“UACCUAUUAUUAACACUAUAUACAACUGAAGGAGCGACAAUAAAGUCAGGUAGGUCGCAGAAUUAAUGAGUGAUGUUCAUUUUUA [JR_ExcArginiA_Sub014]” and “AAAAUAAAGGAGUGAUGUUCCAUAUGUGAUACCAGCCACGAAAGUGGCCCUUGGCAGCACUGCCAAGUGGACGAAAACGUCCACA [#OpenEnded 5 #StaticStem #K4Early]” are within 1.5-fold of each other in “apparent KD of K4 kissing-loop reporter” value: 84.3 nM for the first, 125 nM for the second.

“UGUACCGAGUCAGGAUAUCAACGACUGACAAAGUCGGUCGAAUAUCCAGUGAUGUUGGAAAAUAAAUGAGAAGGGACUUGGUACU [FmnBS 12 #SwitchBubble #StaticStem]” and “UCGAUGGUCAGCGAUACCAGCCCAGUGAUGUUGGGCACAUGGUUGCGGAAAAUCCCAUUGGGCCCUUGGCAGCGCUUGCAUGGGU [Titiquesan]” are within 1.5-fold of each other in “apparent KD of K4 kissing-loop reporter” value: 137 nM for the first, 130 nM for the second.

Compared with “AGAGAGGUGUUUUUUUGAAGUGAGUAAUGGCGAGGACCGGUACGGCCGCCACUCGGGUGAUGUUAGUGAUGUUGAUGUAGUGAUG [yrymullin]”, “GGGAGUUAUUACGGCAGGGUCGAUACGGAUACCAGUAGGCGGCUCUACCCUUGGCAGCCGUAACAUGGUAGUGAUGUUAUCAGUC [theeternabot_exclusion_KL_Theo_A_24]” is 6.6-fold higher in “apparent KD of K4 kissing-loop reporter” value: 79.3 nM for the first, 527 nM for the second.

Compared with “GGCACUUUUGGUAGACACCAUCUACCUCUAUAGGAUAUGCCGAAAGGCAGAAGGAUAGACCUACAGAGUGAUGUUCUGCGUGCCU”, “CCUAUCUCAUACGAUACCAGUCAAUGAAAUUUUAUCAAUGCCAUCACCGAGUGAUGUUCGGACCCUUGGCAGCGUAUGGGAUAGG [Ex Theophylline B K4 3]” is 2.8-fold lower in “apparent KD of K4 kissing-loop reporter” value: 686 nM for the first, 249 nM for the second.

First: ACUGAGCAUGCGGCCGCCACUUCAGAACGUCGCCCAGAGGGCGACGCCUCCGCAGUGAUGUUGUGGAGGACCGGGCAUGUUCAGA [Omei KL Tryp B Exc A v5]
Second: UUAUAACCCAGUGAUGUUGGGUAGCGGCCACGAGGACCGGUACGGCCGCCACUCGAGGUUUAACCAGUGAUGUUGGACUAUAUAA [Same state Tryptophan A GF 4]
The “apparent KD of K4 kissing-loop reporter” value of the first is 8.2-fold higher: 419 nM for the first, 51 nM for the second.

Going from “UUGUUUGGUUGAGAGGUUGGGCGAGAUGAUACCAGUAGAGAAGAGUACCCUUGGCAGCAUAGGAGAGAUAUAGUGAUGUUGUAUG [SSTheophA.S]” to “CCGCUGUACUGCAAUAAGUGAUGUUUAUUGCAGGAUAUCUGGAAACAGAGAAGGGCAUGUACUCGACUUAGCCACUACAGCGGUU”, the “apparent KD of K4 kissing-loop reporter” value falls from 258 nM to 144 nM (1.8-fold).

“GUAGAUAGGCUACAUCUCUAGUCUAUAGACUAGGAUAUCAGGAAACUGAGAAGGAGUCUCAUUGGAGUGAUGUUCCAAGAAUAAU [KL-SSFMN-A15]” and “AAUAAUAAUAAAUAUAGAUUGAUGAGGAAACGAGGACCGGUACGGCCGCCACUCGAGUGAUGUUCGAGAACCUCAUCAAUCAUAA [AK4.7 Exc Tryptophan A]” are within 1.5-fold of each other in “apparent KD of K4 kissing-loop reporter” value: 120 nM for the first, 171 nM for the second.

First: CUUCUCCUUCCAAUCUCGGCCAACACGGGACGAGGACCGGUACGGCCGCCACUCGUGCAGUGAUGUUGCACGAUGGUGACGGAGA [Queronmaan]
Second: CUGAGCUGCAGCGAUACCAGUGUGGAGUGAUGUUCCCUGGUCCGGGCUGUUGUUCCCUUGCGCCCUUGGCAGCGCAGGAGCAGGG [Exclusion Theophylline B GF 15]
The “apparent KD of K4 kissing-loop reporter” value of the first is 5.3-fold lower: 95.7 nM for the first, 506 nM for the second.

First: AAGGCCACGAGAAGGAGCGUGCUAUGGAGUGAUGUUCCAAUGUAGACCUAAGGUCUACAAGCACAGGUAGGUCGCUCGUGGUCAA [Omei KL Arginine B SS A v2]
Second: CGACUAGUCUUGCAACCCUAGUCGAUAGACUAGGAUAUCAGGAAACUGAGAAGGAGUCUACUUGCAGUGAUGUUGCAAGAAUAAU [[F]''-[K]'-[F]'-[F1]-[F2]-[K1]-[K2]_Design6]
The “apparent KD of K4 kissing-loop reporter” value of the first is 1.6-fold lower: 102 nM for the first, 163 nM for the second.

Going from “GCAUGUAUGCGAGAGUGAUGUUCAUGGUUUCGAGGACCGGUACGGCCGCCACUCGCGAUCCGGCGUACAAUCGUGAAGUUAUCAU [theeternabot_sameState_KL_Trp_A_42]” to “GCGCGUCAUGUCAGCGGUGACACUGUCGAUACCAGCGCCGUAAGGCGCCCUUGGCAGCGACGUGCUGGAGUGAUGUUCCAGCGUC [#2 Exclusion - Theophylline A Attempt #20 (HarryS)]”, the “apparent KD of K4 kissing-loop reporter” value falls from 736 nM to 178 nM (4.1-fold).

First: AAUACCUGAGUGAUGUUCAGGGAAUCAGAAGGAGCGUCAAUUAUGACAGGUAGGUCGCUGAAGACAUGUGUGUAUACACAUGUCC [#04 K4 Arginine A Same State]
Second: AAAAUAAUCCAGUGAUGUUGGUAUCCAGAUACCAGCCACGAAAGUGGCCCUUGGCAGCUGUGGACGUACAAAAUAAGUACGUCCU [#OpenEnded 8 #StaticStem #K4Early]
The “apparent KD of K4 kissing-loop reporter” value of the first is 2.1-fold lower: 259 nM for the first, 534 nM for the second.

Going from “UGAUACCAGACGGCCGCCACUCCUGCAGUCAAAGACUGCUAAAGGAAAUUCGUCCAGUGAUGUUGGAGGACCGGGUCUGGUAUCU [TrypBX 13 #SwitchBubble #Palindromic #StaticStem]” to “GGCGGCCGCGCGAAAGCGCGGCCGGCCGAUACCAGCGCGACGGCGCGCCCUUGGCAGCGGCGCCGAGUGAUGUUCGGCCUGCCGU [#2 Same State - Theophylline A Attempt #13 (HarryS)]”, the “apparent KD of K4 kissing-loop reporter” value falls from 1100 nM to 126 nM (8.7-fold).

“GGAUAGGACAGAGGAUAUGGUAGUGAUGUUACCAAACUGGUUAUUAAUGUCAGAAAACUGGCAAAUCCAGAAGGCUGUCCUAUCG [KL-XFMN-B13]” and “UAAGUCUUAUCGGCCGCCACUCAUUACACGAAGUGAUGUUUCGGGUUUUAGACAAAUAAUUUUUGGAGGACCGGGAUACGAGAAA [theeternabot_sameState_KL_Trp_B_49]” are within 1.5-fold of each other in “apparent KD of K4 kissing-loop reporter” value: 180 nM for the first, 162 nM for the second.

First: AAACAUUGGUCGGAUACCAGUUAGACCGAUAAGGUCAAAACUGGAGUGAUGUUCCCAAAUAACCCUUGGCAGCCGACCGAUGAAA [MAT - Same State Theophlline B - Mod of Eli - D11]
Second: AGACUACCACACUGUCAAUAGACAGUGAACUAGGAUAUGCUGAUAAGCAGAAGGAGUGAUGUUCCUCGGUAGUCAAUAAAAUAAU [FmnAX 13 C67]
The “apparent KD of K4 kissing-loop reporter” value of the first is 2.2-fold lower: 193 nM for the first, 419 nM for the second.

For “UGUGAUGUGUAGAGUGAUGUUUUGAAGGAUACCAGAGUGUUGUUAUUCCCUUGGCAGCUUGAGUGAUGUUUGAUGUUGUUGUUGU [efvrmullin]”, the “apparent KD of K4 kissing-loop reporter” value was 228 nM.

same assay, conditions: Eterna round: R107; input ligand: arginine 13.2 mM

Going from “GCCGUAGAUGGAAGGAGCGACUUCAGCGGAUAAACGUGACAAUUGGAGUGAUGUUCGCAAGGUCAGGUAGGUCGCCAUCUACGGC” to “AUUUUGGUUUAGAGUGAUGUUCCUUGUAUUCGAGGACCGGUACGGCCGCCACUCGGGUAGAAAAGAAAAGAAAUGUUUGAUUUUU [BDazzled - #9 SS Tryptophan A]”, the “apparent KD of K4 kissing-loop reporter” value falls from 211 nM to 102 nM (2.1-fold).

“UACCUAUUAUUAACACUAUAUACAACUGAAGGAGCGACAAUAAAGUCAGGUAGGUCGCAGAAUUAAUGAGUGAUGUUCAUUUUUA [JR_ExcArginiA_Sub014]” and “AAAAUAAAGGAGUGAUGUUCCAUAUGUGAUACCAGCCACGAAAGUGGCCCUUGGCAGCACUGCCAAGUGGACGAAAACGUCCACA [#OpenEnded 5 #StaticStem #K4Early]” are within 1.5-fold of each other in “apparent KD of K4 kissing-loop reporter” value: 136 nM for the first, 162 nM for the second.

Compared with “UGUACCGAGUCAGGAUAUCAACGACUGACAAAGUCGGUCGAAUAUCCAGUGAUGUUGGAAAAUAAAUGAGAAGGGACUUGGUACU [FmnBS 12 #SwitchBubble #StaticStem]”, “UCGAUGGUCAGCGAUACCAGCCCAGUGAUGUUGGGCACAUGGUUGCGGAAAAUCCCAUUGGGCCCUUGGCAGCGCUUGCAUGGGU [Titiquesan]” is 3-fold lower in “apparent KD of K4 kissing-loop reporter” value: 361 nM for the first, 122 nM for the second.

For “AGAGAGGUGUUUUUUUGAAGUGAGUAAUGGCGAGGACCGGUACGGCCGCCACUCGGGUGAUGUUAGUGAUGUUGAUGUAGUGAUG [yrymullin]”, the “apparent KD of K4 kissing-loop reporter” value was 60.8 nM.
